Measurements: the supplement of paper PMC5998384

Experiments:
HeLa Kyoto [1] = test: solubility change mitosis vs G1/S (difference of NP-40 vs SDS log2 ratios) (log2 ratio difference); higher = more soluble in mitosis
HeLa Kyoto [2] = test: thermal stability score vs G1/S (z-score of summed log2 fold changes over temperatures); higher = more thermally stable than in G1/S
HeLa Kyoto [3] = test: melting temperature (median over replicates), in situ; higher = more thermally stable
HeLa Kyoto [4] = test: solubility in G1/S (NP-40 vs SDS abundance) (log2 ratio); higher = more soluble; conditions: cell cycle stage: G1/S
[5] = cell cycle stage: early G1 (4.5 h after nocodazole release)
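Wherever melting temperature (median over replicates), in situ is given: HeLa Kyoto cells synchronized by double thymidine or nocodazole block, proteins quantified by TMT10plex mass spectrometry, three independent biological replicates.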
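Wherever solubility change mitosis vs G1/S (difference of NP-40 vs SDS log2 ratios) is given: synchronized HeLa Kyoto cells (double thymidine block for G1/S, nocodazole release for mitosis), protein amounts in NP-40 versus SDS lysates quantified by mass spectrometry, three biological replicates.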
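Wherever solubility in G1/S (NP-40 vs SDS abundance) is given: HeLa Kyoto cells arrested at G1/S by double thymidine block, proteins quantified by TMT10plex mass spectrometry in mild NP-40 versus SDS extracts, three biological replicates.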
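Wherever thermal stability score vs G1/S (z-score of summed log2 fold changes over temperatures) is given: synchronized HeLa Kyoto cells, proteins quantified by TMT10plex mass spectrometry, three biological replicates, mitosis taken 0.5 h after nocodazole release, G1/S directly after double thymidine block.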

Chain of NDRG3 (chain, as listed by the source): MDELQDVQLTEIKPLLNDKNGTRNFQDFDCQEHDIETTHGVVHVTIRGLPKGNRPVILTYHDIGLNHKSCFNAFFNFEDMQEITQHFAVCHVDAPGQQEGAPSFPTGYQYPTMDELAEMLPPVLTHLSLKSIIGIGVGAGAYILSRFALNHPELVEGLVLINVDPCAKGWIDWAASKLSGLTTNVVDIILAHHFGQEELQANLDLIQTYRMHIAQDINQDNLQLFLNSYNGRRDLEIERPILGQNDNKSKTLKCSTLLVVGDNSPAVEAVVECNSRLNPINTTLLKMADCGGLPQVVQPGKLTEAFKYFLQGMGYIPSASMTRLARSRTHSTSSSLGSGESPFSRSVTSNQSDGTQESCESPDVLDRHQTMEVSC

For “MTAAENVCYTLINVPMDSEPPSEISLKNDLEKGDVKSKTEALKKVIIMILNGEKLPGLLMTIIRFVLPLQDHTIKKLLLVFWEIVPKTTPDGRLLHEMILVCDAYRKDLQHPNEFIRGSTLRFLCKLKEAELLEPLMPAIRACLEHRHSYVRRNAVLAIYTIYRNFEHLIPDAPELIHDFLVNEKDASCKRNAFMMLIHADQDRALDYLSTCIDQVQTFGDILQLVIVELIYKVCHANPSERARFIRCIYNLLQSSSPAVKYEAAGTLVTLSSAPTAIKAAAQCYIDLIIKESDNNVKLIVLDRLIELKEHPAHERVLQDLVMDILRVLSTPDLEVRKKTLQLALDLVSSRNVEELVIVLKKEVIKTNNVSEHEDTDKYRQLLVRTLHSCSVRFPDMAANVIPVLMEFLSDNNEAAAADVLEFVREAIQRFDNLRMLIVEKMLEVFHAIKSVKIYRGALWILGEYCSTKEDIQSVMTEIRRSLGEIPIVESEIKKEAGELKPEEEITVGPVQKLVTEMGTYATQSALSSSRPTKKEEDRPPLRGFLLDGDFFVAASLATTLTKIALRYVALVQEKKKQNSFVAEAMLLMATILHLGKSSLPKKPITDDDVDRISLCLKVLSECSPLMNDIFNKECRQSLSHMLSAKLEEEKLSQKKESEKRNVTVQPDDPISFMQLTAKNEMNCKEDQFQLSLLAAMGNTQRKEAADPLASKLNKVTQLTGFSDPVYAEAYVHVNQYDIVLDVLVVNQTSDTLQNCTLELATLGDLKLVEKPSPLTLAPHDFANIKANVKVASTENGIIFGNIVYDVSGAASDRNCVVLSDIHIDIMDYIQPATCTDAEFRQMWAEFEWENKVTVNTNMVDLNDYLQHILKSTNMKCLTPEKALSGYCGFMAANLYARSIFGEDALANVSIEKPIHQGPDAAVTGHIRIRAKSQGMALSLGDKINLSQKKTSI [COPB1]”, the “solubility change mitosis (log2)” value (HeLa Kyoto [1]) was -0.197, the thermal stability score (HeLa Kyoto [2]; [5]) was 0.105 and the thermal stability score (HeLa Kyoto [2]; cell cycle stage: mitosis) was 1.39. The melting temperature (HeLa Kyoto [3]; cell cycle stage: G1/S) was 51.8 °C, the melting temperature (HeLa Kyoto [3]; cell cycle stage: mitosis) was 51.7 °C and the “solubility in G1/S (log2)” value (HeLa Kyoto [4]) was -0.149.
For “MAALVRPARFVVRPLLQVVQAWDLDARRWVRALRRSPVKVVFPSGEVVEQKRAPGKQPRKAPSEASAQEQREKQPLEESASRAPSTWEESGLRYDKAYPGDRRLSSVMTIVKSRPFREKQGKILLEGRRLISDALKAGAVPKMFFFSRLEYLKELPVDKLKGVSLIKVKFEDIKDWSDLVTPQGIMGIFAKPDHVKMTYPKTQLQHSLPLLLICDNLRDPGNLGTILRSAAGAGCSKVLLTKGCVDAWEPKVLRAGMGAHFRMPIINNLEWETVPNYLPPDTRVYVADNCGLYAQAEMSNKASDHGWVCDQRVMKFHKYEEEEDVETGASQDWLPHVEVQSYDSDWTEAPAAVVIGGETYGVSLESLQLAESTGGKRLLIPVVPGVDSLNSAMAASILLFEGKRQLRGRAEDLSRDRSYH [RNMTL1]”, the “solubility change mitosis (log2)” value (HeLa Kyoto [1]) was 0.163, the thermal stability score (HeLa Kyoto [2]; [5]) was -0.281 and the thermal stability score (HeLa Kyoto [2]; cell cycle stage: mitosis) was -1.34. For the same substance, the melting temperature (HeLa Kyoto [3]; cell cycle stage: G1/S) was 53.2 °C, the melting temperature (HeLa Kyoto [3]; cell cycle stage: mitosis) was 52.1 °C and the “solubility in G1/S (log2)” value (HeLa Kyoto [4]) was -0.452.
“MEHIRTTKVEQVKLLDRFSTSNKSLTGTLYLTATHLLFIDSHQKETWILHHHIASVEKLALTTSGCPLVIQCKNFRTVHFIVPRERDCHDIYNSLLQLSKQAKYEDLYAFSYNPKQNDSERLQGWQLIDLAEEYKRMGVPNSHWQLSDANRDYKICETYPRELYVPRIASKPIIVGSSKFRSKGRFPVLSYYHQDKEAAICRCSQPLSGFSARCLEDEHLLQAISKANPVNRYMYVMDTRPKLNAMANRAAGKGYENEDNYSNIRFQFVGIENIHVMRSSLQKLLEVNGTKGLSVNDFYSGLESSGWLRHIKAVMDAAIFLAKAITVENASVLVHCSDGWDRTSQVCSLGSLLLDSYYRTIKGFMVLIEKDWISFGHKFSERCGQLDGDPKEVSPVFTQFLECVWHLTEQFPQAFEFSEAFLLQIHEHIHSCQFGNFLGNCQKEREELKLKEKTYSLWPFLLEDQKKYLNPLYSSESHRFTVLEPNTVSFNFKFWRNMYHQFDRTLHPRQSVFNIIMNMNEQNKQLEKDIKDLESKIKQRKNKQTDGILTKELLHSVHPESPNLKTSLCFKEQTLLPVNDALRTIEGSSPADNRYSEYAEEFSKSEPAVVSLEYGVARMTC [MTMR6]” was tested, and the “solubility change mitosis (log2)” value (HeLa Kyoto [1]) was 0.0297, the thermal stability score (HeLa Kyoto [2]; [5]) was -0.167 and the thermal stability score (HeLa Kyoto [2]; cell cycle stage: mitosis) was 0.0404. For the same substance, the melting temperature (HeLa Kyoto [3]; cell cycle stage: G1/S) was 51 °C, the melting temperature (HeLa Kyoto [3]; cell cycle stage: mitosis) was 50.5 °C and the “solubility in G1/S (log2)” value (HeLa Kyoto [4]) was -0.264.
In the case of DSP, the “solubility change mitosis (log2)” value (HeLa Kyoto [1]) is reported as -0.0238, the thermal stability score (HeLa Kyoto [2]; [5]) is reported as -3.13 and the thermal stability score (HeLa Kyoto [2]; cell cycle stage: mitosis) is reported as 0.479. The melting temperature (HeLa Kyoto [3]; cell cycle stage: G1/S) was 46.7 °C, the melting temperature (HeLa Kyoto [3]; cell cycle stage: mitosis) was 46.6 °C and the “solubility in G1/S (log2)” value (HeLa Kyoto [4]) was -0.687.
In the case of “MSSSVRRKGKPGKGGGKGSSRGGRGGRSHASKSHGSGGGGGGGGGGGGGNRKASSRIWDDGDDFCIFSESRRPSRPSNSNISKGESRPKWKPKAKVPLQTLHMTSENQEKVKALLRDLQEQDADAGSERGLSGEEEDDEPDCCNDERYWPAGQEPSLVPDLDPLEYAGLASVEPYVPEFTVSPFAVQKLSRYGFNTERCQAVLRMCDGDVGASLEHLLTQCFSETFGERMKISEAVNQISLDECMEQRQEEAFALKSICGEKFIERIQNRVWTIGLELEYLTSRFRKSKPKESTKNVQENSLEICKFYLKGNCKFGSKCRFKHEVPPNQIVGRIERSVDDSHLNAIEDASFLYELEIRFSKDHKYPYQAPLVAFYSTNENLPLACRLHISEFLYDKALTFAETSEPVVYSLITLLEEESEIVKLLTNTHHKYSDPPVNFLPVPSRTRINNPACHKTVIPNNSFVSNQIPEVEKASESEESDEDDGPAPVIVENESYVNLKKKISKRYDWQAKSVHAENGKICKQFRMKQASRQFQSILQERQSLPAWEERETILNLLRKHQVVVISGMTGCGKTTQIPQFILDDSLNGPPEKVANIICTQPRRISAISVAERVAKERAERVGLTVGYQIRLESVKSSATRLLYCTTGVLLRRLEGDTALQGVSHIIVDEVHERTEESDFLLLVLKDIVSQRPGLQVILMSATLNAELFSDYFNSCPVITIPGRTFPVDQFFLEDAIAVTRYVLQDGSPYMRSMKQISKEKLKARRNRTAFEEVEEDLRLSLHLQDQDSVKDAVPDQQLDFKQLLARYKGVSKSVIKTMSIMDFEKVNLELIEALLEWIVDGKHSYPPGAILVFLPGLAEIKMLYEQLQSNSLFNNRRSNRCVIHPLHSSLSSEEQQAVFVKPPAGVTKIIISTNIAETSITIDDVVYVIDSGKMKEKRYDASKGMESLEDTFVSQANALQRKGRAGRVASGVCFHLFTSHHYNHQLLKQQLPEIQRVPLEQLCLRIKILEMFSAHNLQSVFSRLIEPPHTDSLRASKIRLRDLGALTPDERLTPLGYHLASLPVDVRIGKLMLFGSIFRCLDPALTIAASLAFKSPFVSPWDKKEEANQKKLEFAFANSDYLALLQAYKGWQLSTKEGVRASYNYCRQNFLSGRVLQEMASLKRQFTELLSDIGFAREGLRAREIEKRAQGGDGVLDATGEEANSNAENPKLISAMLCAALYPNVVQVKSPEGKFQKTSTGAVRMQPKSAELKFVTKNDGYVHIHPSSVNYQVRHFDSPYLLYHEKIKTSRVFIRDCSMVSVYPLVLFGGGQVNVQLQRGEFVVSLDDGWIRFVAASHQVAELVKELRCELDQLLQDKIKNPSIDLCTCPRGSRIISTIVKLVTTQ [DHX57]”, the “solubility change mitosis (log2)” value (HeLa Kyoto [1]) is reported as 0.223, the thermal stability score (HeLa Kyoto [2]; [5]) is reported as -0.0848 and the thermal stability score (HeLa Kyoto [2]; cell cycle stage: mitosis) is reported as -0.271. For the same substance, the melting temperature (HeLa Kyoto [3]; cell cycle stage: G1/S) was 53 °C, the melting temperature (HeLa Kyoto [3]; cell cycle stage: mitosis) was 51.9 °C and the “solubility in G1/S (log2)” value (HeLa Kyoto [4]) was -0.884.
NDRG3 was tested, and the “solubility change mitosis (log2)” value (HeLa Kyoto [1]) was -0.371, the thermal stability score (HeLa Kyoto [2]; [5]) was 0.668 and the thermal stability score (HeLa Kyoto [2]; cell cycle stage: mitosis) was 0.934. For the same substance, the melting temperature (HeLa Kyoto [3]; cell cycle stage: G1/S) was 52.2 °C, the melting temperature (HeLa Kyoto [3]; cell cycle stage: mitosis) was 52 °C and the “solubility in G1/S (log2)” value (HeLa Kyoto [4]) was 0.351.
